Experimental data taken from publication PMC5413884, “Enzyme discovery beyond homology: a unique hydroxynitrile lyase in the Bet v1 superfamily” (Scientific Reports, 2017).

Legend:
[1] = target: T1, DtHNL1 (Davallia tyermanii, UniProt A0A1C9V3S9); assay: X-ray crystal structure, soaking; type: binding; settings: active site
T1 construct: gene HNL1; dimer; about 20 kDa

[2] = target: T1, DtHNL1; assay: benzaldehyde formation at […] nm, Michaelis-Menten fit; type: biochemical; settings: cleavage direction; 50 mM sodium citrate-phosphate pH 5.0, 25 °C
[3] = target: Davallia tyermannii hydroxynitrile lyase 1 (DtHNL1) (Davallia tyermannii); assay: crystal structure; SeMet-SAD structure at 1.85 Å and native crystals soaked with 4-hydroxybenzaldehyde, benzoic acid or (R)-mandelonitrile; sitting drop vapor diffusion, 16 °C, protein in 10 mM Tris-HCl pH 8.0
[4] = tested on: O=Cc1ccccc1; assay: GC of (R)-mandelonitrile formed, initial rates, Michaelis-Menten fit; type: biochemical, Davallia tyermanii; settings: apparent, synthesis direction, biphasic MTBE/buffer 2:1, 2 M HCN, pH 4.0, 10 °C
[5] = tested on: N#C[C@H](O)c1ccccc1; assay: purified protein; type: biochemical, Davallia tyermanii; settings: cleavage direction, 50 mM sodium citrate-phosphate pH 5.0, 25 °C
[6] = crystal soaked with (R)-mandelonitrile

With `N#C[C@H](O)c1ccccc1` [(R)-mandelonitrile, (2R)-2-hydroxy-2-phenylacetonitrile] the “X-ray crystal structure, soaking” value [1, 6] was 5E4B (DtHNL1-MXN) and the Km [2] was 300 ± 30 µM.

In the case of `O=Cc1ccccc1` [benzaldehyde], the “X-ray crystal structure, soaking” value [1, 6] is reported as “Bound benzaldehyde (cyan, right) and (R)-mandelonitrile (yellow, left) as observed in a crystal”.

With `O=C(O)c1ccccc1` [benzoic acid] the “X-ray crystal structure, soaking” value [1] was 5E4D (DtHNL1–BEZ).

“Davallia tyermannii hydroxynitrile lyase 1 (DtHNL1) (enzyme)” gave a stoichiometry N [3] of 2.

In the case of DtHNL1 (Davallia tyermanii), the Km [4] is reported as 14000 ± 2000 µM and the kcat [4] is reported as 70 ± 7 s⁻¹.

Compound DtHNL2 (Davallia tyermanii) has a Km [5] of 450 ± 50 µM and a kcat [5] of 156 ± 3 s⁻¹.

In the case of DtHNL3 (Davallia tyermanii), the Km [5] is reported as 750 ± 80 µM and the kcat [5] is reported as 356 ± 8 s⁻¹.

With DtHNL4 (Davallia tyermanii) the Km [5] was 630 ± 60 µM and the kcat [5] was 272 ± 5 s⁻¹.
